Read-outs that look alike come from different tables or passages of the source.
Key:
[1] = tested on: MBNL1 protein levels in DM1 cells; format: cell-based, human; settings: for Tindex (therapeutic index): Tindex = TC50 x Emax / EC50; for EC50: median effective concentration for MBNL1 increase, DM1 myotubes, lipofection (X-tremeGENE HP), medium replaced after 4 h, cells collected day 4, each concentration in triplicate; for MBNL1 fold change: vs untreated DM1 cells
Experimental: Immortalized MyoD-inducible (doxycycline) DM1 and control fibroblasts were kindly provided by Dr Furling (Institute of Myology, Paris, France).[38] For the activity assay, cells were seeded in 6-well plates at a density of 8 × 10^4 cells/well and grown in DMEM with 4.5 g/L glucose, 1% P/S, and 10% FBS (Sigma, St. Louis, MO). […] In all cases, the cells were grown at 37°C in a humidified atmosphere containing 5% CO2. Transdifferentiation was induced at day 0, and transfection was performed by lipofection with X-tremeGENE HP (Roche, Basel, Switzerland) 24 h later, with antimiRs and test compounds in the cell medium at different concentrations (from 0.4 nM to 5 μM). The medium was replaced with fresh differentiation medium 4 h afterward. In the gymnosis assay, test compounds were added to the culture medium only at the corresponding EC50 concentration. Cells were collected on day 4 of differentiation and were processed for protein extraction.
For total protein extraction, human muscle cells were sonicated while mouse muscles (gastrocnemius and quadriceps) were homogenized in Pierce RIPA buffer (Thermo Scientific, Waltham, MA) supplemented with protease and phosphatase inhibitor cocktails (Roche Applied Science, Penzberg, Germany). Quantification of total protein was performed with a Pierce BCA protein assay kit (Thermo Scientific) using bovine serum albumin as standard.
A 96-well plate QDB assay was used[87] to determine MBNL1 protein levels in all replicates and concentrations of each ON tested. This technique allows for high-throughput screening of low protein concentration samples over conventional western blot (WB) (Figure S9).[88] Cell samples (1 μg/well) and mice samples (2 μg/well) were prepared with 4× loading buffer, denatured (100°C for 5 min) and loaded in QDB plates (Quanticision Diagnostics, Research Triangle Park, NC). For the quantification of in vitro samples, the QDB was performed exactly as described in Moreno et al.[87] […] For Mbnl1 quantification in mouse muscle tissues, we implemented the following modifications: each sample was loaded in quadruplicate on three different plates. One was used to detect Mbnl1 with a mouse MB1a(4A8) antibody (DSHB, Iowa City, IA) using a 1:200 dilution. A second plate was used to quantify tubulin (endogenous normalization control) with a mouse 12G10 antibody (DSHB) using a 1:1,000 dilution. A third plate was used to quantify IgG signal (negative control to subtract background) using an anti-mouse-IgG secondary antibody (Sigma-Aldrich) at 1:3,500 dilution. […] All primary antibodies were detected using horseradish peroxidase-conjugated anti-mouse-IgG secondary antibody (1:5,000 for the anti-mouse plate, 1:2,000 for cell plates, and 1:3,500 for mouse plates [Sigma-Aldrich, MO]). Immunoreactive bands were detected using Pierce ECL Western reagent (Thermo Scientific), and luminescence levels were determined using an Infinite M200 PRO plate reader (Tecan). […] WB assay was performed as described previously.[20]
After obtaining the TC50, EC50, and Emax in vitro, we defined a Tindex as follows: Tindex=TC50×Emax/EC50

HSALR mice = assay: Serum biochemistry profile; format: in vivo, mouse
Source text: Mouse handling and experimental procedures followed the European law regarding laboratory animal care and experimentation (2003/65/C.E.) and were approved by Conselleria de Agricultura, […] (reference no. A1539961490857). We used homozygous transgenic HSA^LR (line 20 b) mice,[90] which were kindly provided by Dr Thornton (Rochester, NY) and were housed and bred in our animal facility. […] The mice were randomly allocated to the different treatments as follows: in each cage, each mouse was ear-marked as it was taken out, and each mouse was then assigned to a different treatment. Animals were injected biweekly intravenously with 150 μL of 1× PBS vehicle (controls; […] Mice were sacrificed 45 days after the first injection and the tissues of interest were frozen in liquid nitrogen for the molecular and histological assays. All the mice used in this study ranged from 5 to 5.5 months of age and all were males. At 45 days post treatment, animals were sacrificed, and blood was collected by cardiac puncture exsanguination with K3-EDTA (Sarstedt, Nümbrecht, Germany). The samples were analyzed by Laboratorios Montoro Botella (Valencia, Spain).

[2] = tested on: IL-1β, IL-6, MCP-1, IL-12β, TNF-α, IL-15, Mstn-1; assay: Proinflammatory cytokines and Mstn-1 in quadriceps by qRT-PCR; format: in vivo, mouse
[3] = HSALR mice, 9.2 mg/kg (mean) i.v. x3, day 45, qRT-PCR
[4] = HSALR mice, 9.2 mg/kg (mean) i.v. x3, day 45, serum, mean ± sd, n = 5

| Substance | Tindex (therapeutic index) [1] | EC50 [1] [nM] | ALT (HSALR mice; mouse, in vivo, iv, 9.2 mg/kg) | Alkaline Phosphatase (HSALR mice; mouse, in vivo, iv, 9.2 mg/kg) | Amylase (HSALR mice; mouse, in vivo, iv, 9.2 mg/kg) | Bile Acids (HSALR mice; mouse, in vivo, iv, 9.2 mg/kg) | Bilirubin (HSALR mice; mouse, in vivo, iv, 9.2 mg/kg) | Creatinine (HSALR mice; mouse, in vivo, iv, 9.2 mg/kg) | Mstn-1 expression in quadriceps [2, 3] | Lipase (HSALR mice; mouse, in vivo, iv, 9.2 mg/kg) | Urea (HSALR mice; mouse, in vivo, iv, 9.2 mg/kg) | further results |
| --- | --- | --- | --- | --- | --- | --- | --- | --- | --- | --- | --- | --- |
| 6aKC-23b (antisense GGUAAUCCCUGGCAAUGUGAU; all phosphorodiamidate morpholino (PMO), T or U not given here; Pip6aKC peptide conjugated) | 7.78 | 453 | 57,8 ± 13,349 U/L | 58,40 ± 6,693 U/L | 4232,6 ± 2590,822 U/L | 0,675 ± 0,754 µmol/L | 0,11 ± 0,083 mg/dL | 0,20 ± 0 mg/dL | – | – | – | MBNL1 fold change ([1]; transfection, 1,000 nM): ~2 fold; AST (HSALR mice; mouse, in vivo, iv, 9.2 mg/kg): 143,60 ± 41,464 U/L; C.P.K. (HSALR mice; mouse, in vivo, iv, 9.2 mg/kg): 831,8 ± 357,821 U/L; Glucose (HSALR mice; mouse, in vivo, iv, 9.2 mg/kg): 121,2 ± 27,607 mg/dL; L.D.H. (HSALR mice; mouse, in vivo, iv, 9.2 mg/kg): 2574 ± 453,119 U/L; Total cholesterol (HSALR mice; mouse, in vivo, iv, 9.2 mg/kg): 227,40 ± 11,014 mg/dL; Triglycerides (HSALR mice; mouse, in vivo, iv, 9.2 mg/kg): 235,4 ± 40,209 mg/dL |
| 6aKC-218 (antisense ACAUGGUUAGAUCAAGCACAA; all phosphorodiamidate morpholino (PMO), T or U not given here; Pip6aKC peptide conjugated) | 22.78 | 138 | 60,20 ± 16,208 U/L | 58 ± 4,123 U/L | 2999,4 ± 120,286 U/L | 2,38 ± 3,406 µmol/L | 0,096 ± 0,03 mg/dL | 0,20 ± 0 mg/dL | – | – | – | MBNL1 fold change ([1]; transfection, 1,000 nM): ~1.5 fold; AST (HSALR mice; mouse, in vivo, iv, 9.2 mg/kg): 138,4 ± 57,665 U/L; C.P.K. (HSALR mice; mouse, in vivo, iv, 9.2 mg/kg): 818 ± 604,389 U/L; Glucose (HSALR mice; mouse, in vivo, iv, 9.2 mg/kg): 107,2 ± 31,292 mg/dL; L.D.H. (HSALR mice; mouse, in vivo, iv, 9.2 mg/kg): 2137,60 ± 340,071 U/L; Total cholesterol (HSALR mice; mouse, in vivo, iv, 9.2 mg/kg): 232 ± 12,124 mg/dL; Triglycerides (HSALR mice; mouse, in vivo, iv, 9.2 mg/kg): 273,4 ± 51,335 mg/dL |
| 9b2-23b (antisense GGUAAUCCCUGGCAAUGUGAU; all phosphorodiamidate morpholino (PMO), T or U not given here; Pip9b2 peptide conjugated) | 25.19 | 16 | 47 ± 6,708 U/L | 61 ± 4,301 U/L | 2754,4 ± 540,954 U/L | 9 ± 11,747 µmol/L | 0,102 ± 0,029 mg/dL | 0,26 ± 0,054 mg/dL | downregulation of Mstn-1 | 36,60 ± 8,264 U/L | 53 ± 2,345 mg/dL | IL1β Quads (2^-ddCt qPCR assays) ([2]; mouse, in vivo): 0.49; IL6 Quads (2^-ddCt qPCR assays) ([2]; mouse, in vivo): 0.39; IL12β Quads (2^-ddCt qPCR assays) ([2]; mouse, in vivo): 0.57; IL15 Quads (2^-ddCt qPCR assays) ([2]; mouse, in vivo): 2.25; MCP-1 Quads (2^-ddCt qPCR assays) ([2]; mouse, in vivo): 0.55; TNF-α Quads (2^-ddCt qPCR assays) ([2]; mouse, in vivo): 0.26; ΔTindex ([1]; fold change in Tindex relative to the control antagomiR against the same miRNA): 0.34 fold change; urea values vs HSALR group treated with PBS (HSALR mice; mouse, in vivo, iv, 9.2 mg/kg): statistically significant increase in the urea values |
| 9b2-218 (antisense ACAUGGUUAGAUCAAGCACAA; all phosphorodiamidate morpholino (PMO), T or U not given here; Pip9b2 peptide conjugated) | 2.52 | 64.7 | 49 ± 19,079 U/L | 61,40 ± 6,730 U/L | 2773,2 ± 363,954 U/L | 74,80 ± 159,433 µmol/L | 0,108 ± 0,044 mg/dL | 0,32 ± 0,192 mg/dL | – | 63,8 ± 75,793 U/L | 44,40 ± 6,985 mg/dL | – |
| 9b2KC-23b (antisense GGUAAUCCCUGGCAAUGUGAU; all phosphorodiamidate morpholino (PMO), T or U not given here; Pip9b2KC peptide conjugated) | 404.48 | 2 | 45,20 ± 1,303 U/L | 58,8 ± 5,718 U/L | 2952,6 ± 123,373 U/L | 8,40 ± 8,264 µmol/L | 0,10 ± 0,045 mg/dL | 0.20 ± 0,071 mg/dL | downregulation of Mstn-1 | 30,6 ± 6,730 U/L | 43,6 ± 6,580 mg/dL | TC50 relative to EC50 [1]: 128 fold; MBNL1 fold change ([1]; transfection, 200 nM): ~3 fold |
| 9b2KC-218 (antisense ACAUGGUUAGAUCAAGCACAA; all phosphorodiamidate morpholino (PMO), T or U not given here; Pip9b2KC peptide conjugated) | 198.07 | 2.58 | 47 ± 10 U/L | 59,8 ± 6,300 U/L | 2593,4 ± 987,253 U/L | 55,20 ± 107,339 µmol/L | 0,112 ± 0,026 mg/dL | 0,22 ± 0,084 mg/dL | – | 134,4 ± 227,401 U/L | 41 ± 1,871 mg/dL | MBNL1 fold change ([1]; transfection, 10 nM): ~6 fold |
| TCTTACCTCAGTTACAATTTA-Pip9b2 [Scramble, reference compound] | – | 890 | – | – | – | – | – | – | not detected | – | – | IL-6 and IL-15 expression in quadriceps [2, 3]: reduced levels of IL-6 and IL-15; Emax (maximum fold change) ([1]; highest MBNL1 protein level vs untreated DM1 cells over the concentrations tested, transfection): 1.30 fold change; ability to enhance MBNL1 expression ([1]; transfection, all concentrations tested (10 nM to 5 μM)): no ability to enhance MBNL1 expression at any concentration tested; ALT (HSALR mice; [4]): 47,6 ± 11,327 U/L; AST (HSALR mice; [4]): 129,60 ± 33,687 U/L; Alkaline Phosphatase (HSALR mice; [4]): 61 ± 6,557 U/L; Amylase (HSALR mice; [4]): 3234,2 ± 476,489 U/L; Bile Acids (HSALR mice; [4]): 3,38 ± 5,188 µmol/L; Bilirubin (HSALR mice; [4]): 0,118 ± 0,026 mg/dL; C.P.K. (HSALR mice; [4]): 763 ± 244,663 U/L; Creatinine (HSALR mice; [4]): 0,20 ± 0 mg/dL; Glucose (HSALR mice; [4]): 113,60 ± 35,352 mg/dL; L.D.H. (HSALR mice; [4]): 2438,8 ± 183,91 U/L; Total cholesterol (HSALR mice; [4]): 224,40 ± 11,216 mg/dL; Triglycerides (HSALR mice; [4]): 259,8 ± 56,287 mg/dL |

Source: paper PMC10514136, “Peptide-conjugated antimiRs improve myotonic dystrophy type 1 phenotypes by promoting endogenous MBNL1 expression” (Molecular Therapy. Nucleic Acids, 2023)
